Measured values: US20170096495A1 (Hoffmann-La Roche, published 2017)
Positions count from the first letter of the chain named. Read-outs that look alike come from different tables or passages of the source.

Tests used:
[1] = molecular target: T1, human STEAP-1 (Six-transmembrane epithelial antigen of prostate 1) (human, UniProt Q9UHE8 1-339); assay: cell-based or functional assay
[2] = molecular target: T1, human STEAP-1 (Six-transmembrane …); assay: cell-based or functional assay; remark: listed apart in the source
[3] = molecular target: T1, human STEAP-1 (Six-transmembrane …); assay: cell-based or functional assay; remark: listed apart in the source
[4] = molecular target: T1, human STEAP-1 (Six-transmembrane …); assay: cell-based or functional assay; remark: listed apart in the source
[5] = molecular target: T1, human STEAP-1 (Six-transmembrane …); assay: cell-based or functional assay; remark: listed apart in the source
[6] = molecular target: T1, human STEAP-1 (Six-transmembrane …); assay: cell-based or functional assay; remark: listed apart in the source
[7] = molecular target: T1, human STEAP-1 (Six-transmembrane …); assay: cell-based or functional assay; remark: listed apart in the source
human CD3 [8] = molecular target: T2, human CD3 (human, UniProt P07766 23-207); assay: flow cytometry on Jurkat cells
T2 construct: In the assays CD3 stood as the native complex on Jurkat cells, Jurkat-NFAT reporter cells or primary human T cells; also called CD3 epsilon

[9] = molecular target: T1, human STEAP-1 (Six-transmembrane …); assay: flow cytometry on CHO-hSTEAP1 clone 2 cells, anti-human Fc secondary antibody
Method: The binding of STEAP-1 TCB molecules was tested, using STEAP-1-expressing CHO-hSTEAP1, clone 2 cells (an epithelial cell line derived from hamster ovary, that was transfected to stably overexpress human STEAP-1) and CD3-expressing immortalized T lymphocyte cells (Jurkat, DSMZ #ACC 282).
Briefly, adherent CHO-hSTEAP1 cells were harvested, using Cell Dissociation Buffer (Gibco, #13151014) counted, checked for viability and re-suspended at 2×10⁶ cells/ml in FACS buffer (100 μl PBS 0.1% BSA). Jurkat suspension cells were also harvested, counted and checked for viability. 100 μl of cell suspension (containing 0.2×10⁶ cells) were incubated in round-bottom 96-well plate for 30 min at 4° C. with increasing concentrations of the STEAP-1 TCB (31 pM-500 nM), washed twice with cold PBS containing 0.1% BSA (FACS buffer), re-incubated for further 30 min at 4° C. with the 1:50 pre-diluted FITC- or Alexa Fluor 647-conjugated AffiniPure F(ab′)2 Fragment goat-human IgG Fcg Fragment Specific secondary antibody (Jackson Immuno Research Lab, FITC #109-096-098, binding to Jurkats, or Jackson Immuno Research Lab, Alexa Fluor 647 #109-606-008, for binding to CHO-hSTEAP1, dilutions in FACS buffer) and washed twice with cold PBS 0.1% BSA. […] Staining was analyzed by FACS using a FACS Canto II (Software FACS Diva). […]

human CD3 [10] = molecular target: T2, human CD3; assay: cell-based or functional assay

T1 sequence (Q9UHE8 whole entry): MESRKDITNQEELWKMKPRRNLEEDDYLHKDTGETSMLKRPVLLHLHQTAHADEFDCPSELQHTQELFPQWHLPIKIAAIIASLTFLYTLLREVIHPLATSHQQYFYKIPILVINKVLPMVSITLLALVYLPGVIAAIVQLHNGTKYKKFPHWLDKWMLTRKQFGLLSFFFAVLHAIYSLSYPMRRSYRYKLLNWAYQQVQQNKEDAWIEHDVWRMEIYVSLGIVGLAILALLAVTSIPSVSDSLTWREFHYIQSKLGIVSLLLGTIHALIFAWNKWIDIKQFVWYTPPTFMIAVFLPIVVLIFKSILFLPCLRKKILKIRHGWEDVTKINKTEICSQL
T2 sequence (P07766 23-207 limits assumed): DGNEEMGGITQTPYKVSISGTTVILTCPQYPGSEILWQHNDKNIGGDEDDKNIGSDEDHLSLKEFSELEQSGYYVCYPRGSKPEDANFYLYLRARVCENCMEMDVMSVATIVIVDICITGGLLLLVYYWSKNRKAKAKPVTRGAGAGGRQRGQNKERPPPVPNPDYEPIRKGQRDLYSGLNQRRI

B1: STEAP-1 TCB Molecule F: "2+1 IgG CrossFab, inverted" with charge modifications (VH/VL exchange in CD3 binder, charge modification in STEAP-1 binders) (bispecific antibody)
heavy 1: EVQLVESGGGLVQPGGSLRLSCAVSGYSITSDYAWNWVRQAPGKGLEWVGYISNSGSTSYNPSLKSRFTISRDNSKNTLYLQMNSLRAEDTAVYYCARERNYDYDDYYYAMDYWGQGTLVTVSSASTKGPSVFPLAPSSKSTSGGTAALGCLVEDYFPEPVTVSWNSGALTSGVHTFPAVLQSSGLYSLSSVVTVPSSSLGTQTYICNVNHKPSNTKVDEKVEPKSCDKTHTCPPCPAPEAAGGPSVFLFPPKPKDTLMISRTPEVTCVVVDVSHEDPEVKFNWYVDGVEVHNAKTKPREEQYNSTYRVVSVLTVLHQDWLNGKEYKCKVSNKALGAPIEKTISKAKGQPREPQVCTLPPSRDELTKNQVSLSCAVKGFYPSDIAVEWESNGQPENNYKTTPPVLDSDGSFFLVSKLTVDKSRWQQGNVFSCSVMHEALHNHYTQKSLSLSP
heavy 2: not shown
light 1: DIQMTQSPSSLSASVGDRVTITCKSSQSLLYRSNQKNYLAWYQQKPGKAPKLLIYWASTRESGVPSRFSGSGSGTDFTLTISSLQPEDFATYYCQQYYNYPRTFGQGTKVEIKRTVAAPSVFIFPPSDRKLKSGTASVVCLLNNFYPREAKVQWKVDNALQSGNSQESVTEQDSKDSTYSLSSTLTLSKADYEKHKVYACEVTHQGLSSPVTKSFNRGEC
light 2: EVQLLESGGGLVQPGGSLRLSCAASGFTFSTYAMNWVRQAPGKGLEWVSRIRSKYNNYATYYADSVKGRFTISRDDSKNTLYLQMNSLRAEDTAVYYCVRHGNFGNSYVSWFAYWGQGTLVTVSSASVAAPSVFIFPPSDEQLKSGTASVVCLLNNFYPREAKVQWKVDNALQSGNSQESVTEQDSKDSTYSLSSTLTLSKADYEKHKVYACEVTHQGLSSPVTKSFNRGEC
EC50 [pM] 24 h, T-cell mediated killing of LnCAP cells (LDH release, human PBMCs, E:T 10:1) [1]: 100 pM
EC50 [pM] 24 h, T-cell mediated killing of MKN45 cells (LDH release, human PBMCs, E:T 10:1) [1]: 1500 pM

B2: STEAP-1 TCB Molecule A: "2+1 IgG CrossFab, inverted" with charge modifications (VH/VL exchange in CD3 binder, charge modification in STEAP-1 binders) (bispecific antibody)
heavy 1: not shown
heavy 2: B1 heavy 1 with N74T
light 1: B1 light 1
light 2: B1 light 2
EC50 [pM] 24 h, T-cell mediated lysis of LnCaP cells (LDH release) [2]: 36.8 pM
EC50 [pM] 48 h, T-cell mediated lysis of LnCaP cells (LDH release) [2]: 31.4 pM
EC50 [pM] 24 h, STEAP-1 TCB-mediated lysis of LnCaP cells (LDH release) [3]: 13.7 pM
EC50 [pM] 48 h, STEAP-1 TCB-mediated lysis of LnCaP cells (LDH release) [3]: 6.35 pM
EC50 [nM], activation of Jurkat-NFAT reporter cells (luminescence after 6 h) with LnCaP cells [4]: 3.58 nM
EC50 [nM], activation of Jurkat-NFAT reporter cells (luminescence after 6 h), presence of CHO-hSTEAP1 [5]: 7.19 nM
EC50 [nM], activation of Jurkat-NFAT reporter cells (luminescence after 6 h), presence of LnCaP cells [5]: 1.36 nM
EC50 [nM], activation of Jurkat-NFAT reporter cells (luminescence after 6 h), presence of CHO-hSTEAP1 [6]: 0.1 nM
EC50 (pM), activation of primary T cells with LnCaP cells, 48 h: % CD4 + CD25+ [7]: 447 pM
EC50 (pM), activation of primary T cells with LnCaP cells, 48 h: % CD4 + CD69+ [7]: 300 pM
EC50 (pM), activation of primary T cells with LnCaP cells, 48 h: % CD8 + CD25+ [7]: 271 pM
EC50 (pM), activation of primary T cells with LnCaP cells, 48 h: % CD8 + CD69+ [7]: 124 pM
binding result (human CD3 [8]): binds
EC50 [9]: 20.2 nM

B3: STEAP-1 TCB Molecule E: "1+1 IgG CrossMab" with charge modifications (VH/VL exchange in CD3 binder, charge modification in STEAP-1 binder) (bispecific antibody)
heavy 1: B1 heavy 1 with N74T
heavy 2: not shown
light 1: B1 light 1
light 2: B1 light 2
EC50 [pM] 24 h, STEAP-1 TCB-mediated lysis of LnCaP cells (LDH release) [3]: 1860 pM
EC50 [pM] 48 h, STEAP-1 TCB-mediated lysis of LnCaP cells (LDH release) [3]: 1560 pM
EC50 [nM], activation of Jurkat-NFAT reporter cells (luminescence after 6 h), presence of CHO-hSTEAP1 [5]: 0.51 nM
EC50 [nM], activation of Jurkat-NFAT reporter cells (luminescence after 6 h), presence of LnCaP cells [5]: 0.054 nM
EC50 [nM], activation of Jurkat-NFAT reporter cells (luminescence after 6 h), presence of CHO-hSTEAP1 [6]: 0.79 nM
EC50 [nM], activation of Jurkat-NFAT reporter cells (luminescence after 6 h), presence of STEAP-1-negative CHO-K1 (human CD3 [10]): 18.8 nM
EC50 (pM), activation of primary T cells with LnCaP cells, 48 h: % CD4 + CD25+ [7]: 7960 pM
EC50 (pM), activation of primary T cells with LnCaP cells, 48 h: % CD4 + CD69+ [7]: 4310 pM
EC50 (pM), activation of primary T cells with LnCaP cells, 48 h: % CD8 + CD25+ [7]: 5060 pM
EC50 (pM), activation of primary T cells with LnCaP cells, 48 h: % CD8 + CD69+ [7]: 588 pM

B4: STEAP-1 TCB Molecule B: "2+1 IgG CrossFab, inverted" without charge modifications (VH/VL exchange in CD3 binder) (bispecific antibody)
light: B1 light 2
chain 1: B1 heavy 1 with N74T, E154K, E220K
chain 2: not shown
chain 3: not shown
EC50 [pM] 24 h, T-cell mediated lysis of LnCaP cells (LDH release) [2]: 95.7 pM
EC50 [pM] 48 h, T-cell mediated lysis of LnCaP cells (LDH release) [2]: 22.9 pM
EC50 [nM], activation of Jurkat-NFAT reporter cells (luminescence after 6 h) with LnCaP cells [4]: 5.73 nM

B5: STEAP-1 TCB Molecule C: "2+1 IgG CrossFab, inverted" with charge modifications (CH1/CL exchange in CD3 binder, charge modification in STEAP-1 binders) (bispecific antibody)
light: B1 light 1
heavy: B1 heavy 1 with N74T
chain 1: not shown
chain 2: QAVVTQEPSLTVSPGGTVTLTCGSSTGAVTTSNYANWVQEKPGQAFRGLIGGTNKRAPGTPARFSGSLLGGKAALTLSGAQPEDEAEYYCALWYSNLWVFGGGTKLTVLSSASTKGPSVFPLAPSSKSTSGGTAALGCLVKDYFPEPVTVSWNSGALTSGVHTFPAVLQSSGLYSLSSVVTVPSSSLGTQTYICNVNHKPSNTKVDKKVEPKSC
EC50 [pM] 24 h, T-cell mediated lysis of LnCaP cells (LDH release) [2]: 152 pM
EC50 [pM] 48 h, T-cell mediated lysis of LnCaP cells (LDH release) [2]: 12.8 pM
EC50 [nM], activation of Jurkat-NFAT reporter cells (luminescence after 6 h) with LnCaP cells [4]: 39.5 nM
